# Measured values from the nanobody polyreactivity screen of Harvey et al. (2022).
# Assay: yeast display, Sf9 membrane polyspecificity reagent, FACS + sequencing; frameworks hold sequencing errors
# Method in brief: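 Galactose induction of a Saccharomyces cerevisiae BJ5465 synthetic nanobody display library ran 36–48 hours. The cells were then stained for 1 hour at 4 °C with 10% biotinylated, detergent-solubilized Sf9 membrane reagent, pulled down on streptavidin microbeads and FACS-sorted into low and high (top ~1%) gates on expression and reagent-binding fluorescence. Labels for polyreactivity follow the gate of origin.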
row,Sequence,polyreactivity (PSR sort gate)
1,QVQLVESGGGLVQAGGSLRLSCSASGSTFTYYAMGWYRQAPVKERELVADIDFSGTSTYYADSVKGRFTVSRDNAKNTVYLQMNSLKPEDTAVYYCATDDYNWFDYDYWGQGTHVTVSS,low polyreactivity
2,QVQLVESGGGLVQAGGSLRLSCSASGSTFYRYAMGWYRQAPGKERELVATITSGGSTHYADSVKGRFTISRDNAKNTVYLQMNSLKPEDTAVYYAATTSDWYTTINVVYRYYYWGQGTQVTVSS,high polyreactivity
3,QVQLVESGGGLVQAGGSLRLSCSASGSTFYVYAMGWYRQAPGKERELVAAIDWSDGSTYYADSVKGRFTISRDNAKNTVYLQMNSLKPEDTAVYYCAADVGGGVDYVDYYYWGQGTQVTVSS,high polyreactivity
4,QVQLVESGGGLVQAGGSLRLSCSASGSTFYYNAMGWYRQAPGKERELVARISRSGGSTYADSVKGRFTISRDNAKNTVYLQMNSLKPEDTAVYYCNAIGYTGPVAYPEYDYWGQGTQVTVSS,low polyreactivity
5,QVQLVESGGGLVQAGGSLRLSCSASGSTSFYNAIGWYRQAPGKERELVAAISWSTGSTYYADSVKGRFTISRDNAKNTVYLQMTSLKPEDTAVYYCAAETGKNVDFVWVLAYPRLDYWGQGTQVTVSS,low polyreactivity
6,QVQLVESGGGLVQAGGSLRLSCSASGYIFLRNAMGWYRQAPGKERALVAAIRRTGGSTYYADSVKGRFTISRDNSKNTVYLQMTSLKPEDTAVYYCDKRSYTGYEYWGQGTQVTVSS,low polyreactivity
7,QVQLVESGGGLVQAGGSLRLSCSAYGRIFRGYAMGGYRQAPGKERELVASISGGDSTYADSVQGRFTISRDNAKNTVYLQMNSLKPEDTAVYYCADDNEWPRYDYWGQGTQVTVSS,low polyreactivity
8,QVQLVESGGGLVQAGGSLRLSCSAYGSTLGYYAMGWYRQAPGKERELVAAIRYSDGNTYYADSVKGRFTISRDNAKNTVYLQMNSLKPEDTAVYYCAADGGYYGRDYWGQGTQVTVSS,high polyreactivity
9,QVQLVESGGGLVQAGGSLRLSCSAYGYTFSHYAMGWYRQAPGKERELVAGITWSGGSTYYADSVKGRYTISRDNAKNTVYLQMNSLKPEDTSVYYCAAKYYWYYSYSGIPLFDYWGQGTQVTVSS,low polyreactivity
10,QVQLVESGGGLVQAGGSLRLSCSSSGLIFRRNAMGWYRQAPGKERELVAVIDRGGRTNYADSVKGRFTISRDNAKNTVYLQMNSLKPEDTAVYYCDKRYASTSGYWGQGTQVTVSS,high polyreactivity
11,QVQLVESGGGLVQAGGSLRLSCVASGFNFRGNAMGLYRQAPGKERELVATISSGGNTYYADSVKGRFTISRDNAKNTVYLQMNSLKPEDTAVYYCNASDGLPTKLNVYVEFDYWGQGTQVTVSS,low polyreactivity
12,QVQLVESGGGLVQAGGSLRLSCVASGRIFSVYAMGWYRQAPAKERELVAGITSSGGSTYYADSVKGRFTISRDNAKNTVYLQMNSLKPEDTAVYYCAAVSEYYKGYDYWGQGTQVTVSS,high polyreactivity
13,QVQLVESGGGLVQAGGSLRLSFAASGFTFGYYTMGWYRQAPGKERELVAAITSGGGTYYADSVKGRFTISRDNAKNTVYLQMNSLKPEDTAVYYCATTPVWYKVSRRYGYWGQGTQVTVSS,high polyreactivity
14,QVQLVESGGGLVQAGGSLRLSFAASGFTFYPYTKGWYRQAPGKEREFVAAISWNCGSTYYADSVKGRFTISRDNAKHTVYLQMNRLKPEDTAVYYCAADFDASRYEYWGQGTQVTVSS,low polyreactivity
15,QVQLVESGGGLVQAGGSLRLSFAASGINFRSYTMGWYRQAPGKERELVAGITRSGGSTYYADSVKGRFTISRDNAKNTVYLQMNSLKPEDSAVYYCAAKFRAGRSSYYWGHGTQVTVSS,high polyreactivity
16,QVQLVESGGGLVQAGGSLRLSFAASGLIFDSNAMGWYRQAPGKERELVASTYYADSVKGRFTISRDNAKNTVYLQMNSLKPEDTAVYYCATTSVYKSVTYDYWGQGTQVTVSS,low polyreactivity
